The record followed here is US20230257470A1 (published 2023).

What all share (assay): SPR (Biacore), FcγR over captured antibody; binding amount divided by that of IL6R-BF648/IL6R-L x 100
Test [1] addresses T1, human FcγRIIIa type V (human, UniProt P08637 17-208, limits assumed).
T1 construct: also called FcgRIIIaV; FcγRIIIa(V)

Test [2] has as its target T2, human FcγRIIa type R (human, UniProt P12318 36-217).
T2 construct: also called FcgRIIaR; FcγRIIa(R)
T2 chain: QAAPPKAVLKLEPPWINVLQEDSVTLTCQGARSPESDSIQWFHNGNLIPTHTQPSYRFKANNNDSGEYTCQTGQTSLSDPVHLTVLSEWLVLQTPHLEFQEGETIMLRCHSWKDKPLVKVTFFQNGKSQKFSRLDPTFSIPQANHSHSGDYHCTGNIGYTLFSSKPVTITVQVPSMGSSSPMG

The target in test [3] is T3, human FcγRIa (human, UniProt P12314 16-292, limits assumed).
T3 construct: also called FcgRIa; FcγRI (CD64)

For test [4], the target named is T4, human FcγRIIb (human, UniProt P31994 43-217, limits assumed).
T4 construct: also called FcgRIIb; FcγIIB
T4 sequence: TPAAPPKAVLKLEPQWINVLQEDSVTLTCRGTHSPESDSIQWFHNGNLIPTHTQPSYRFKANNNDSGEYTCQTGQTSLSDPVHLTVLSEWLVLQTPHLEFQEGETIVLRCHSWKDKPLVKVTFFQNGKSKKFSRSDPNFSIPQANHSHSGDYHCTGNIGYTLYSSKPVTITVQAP

Test [5] addresses T5, human FcγRIIa type H (human, UniProt P12318 36-217).
T5 construct: also called FcgRIIaH; FcγRIIa(H)
T5 sequence: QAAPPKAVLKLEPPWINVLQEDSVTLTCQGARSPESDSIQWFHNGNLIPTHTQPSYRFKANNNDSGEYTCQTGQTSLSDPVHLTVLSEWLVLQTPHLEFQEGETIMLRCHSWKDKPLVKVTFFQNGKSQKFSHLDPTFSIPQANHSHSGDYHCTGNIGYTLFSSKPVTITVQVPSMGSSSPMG

T1 sequence (P08637 other isoform, or with tags, fused parts or gaps limits assumed): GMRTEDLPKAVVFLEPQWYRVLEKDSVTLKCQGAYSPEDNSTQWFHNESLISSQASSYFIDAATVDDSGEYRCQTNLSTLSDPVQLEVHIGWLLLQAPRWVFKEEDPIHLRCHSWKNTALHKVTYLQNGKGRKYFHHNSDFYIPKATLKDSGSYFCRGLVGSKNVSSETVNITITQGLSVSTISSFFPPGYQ
T3 sequence (P12314 16-292 limits assumed): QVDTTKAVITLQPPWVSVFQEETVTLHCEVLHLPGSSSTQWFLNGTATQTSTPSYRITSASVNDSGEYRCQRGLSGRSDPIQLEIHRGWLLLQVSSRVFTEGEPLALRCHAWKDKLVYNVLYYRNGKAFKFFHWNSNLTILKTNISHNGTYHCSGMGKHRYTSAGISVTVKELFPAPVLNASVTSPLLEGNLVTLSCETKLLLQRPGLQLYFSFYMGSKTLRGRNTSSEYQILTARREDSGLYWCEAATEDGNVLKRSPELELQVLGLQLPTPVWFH

B1: IL6R-BP147/IL6R-L (antibody, human IgG1, name in EU numbering)
heavy: QVQLQESGPGLVKPSETLSLTCAVSGHSISHDHAWSWVRQPPGEGLEWIGFISYSGITNYNPSLQGRVTISRDNSKNTLYLQMNSLRAEDTAVYYCARSLARTTAMDYWGEGTLVTVSSASTKGPSVFPLAPSSKSTSGGTAALGCLVKDYFPEPVTVSWNSGALTSGVHTFPAVLQSSGLYSLSSVVTVPSSSLGTQTYICNVNHKPSNTKVDKKVEPKSCDKTHTCPPCPAPEYLGDDSVFLFPPKPKDTLMISRTPEVTCVVVDVSHEDPEVKFNWYVDGVEVHNAKTKPREEQYNSTYRVVSVLTVLHQDWLNGKEYKCKVSNAALPKPIEKTISKAKGQPREPQVYTLPPSRDELTKNQVSLTCLVKGFYPSDIAVEWESNGQPENNYKTTPPVLDSDGSFFLYSKLTVDKSRWQQGNVFSCSVMHEALHNHYTQESLSLSP
light: DIQMTQSPSSLSASVGDRVTITCRASQDISSYLNWYQQKPGKAPKLLIYYTSRLHSGVPSRFSGSGSGTDFTFTISSLQPEDIATYYCQQGNTLPYTFGQGTKVEIK
notes: the list runs over r28 and r29; copies: 2 + 2
With B1, the relative binding activity was 209 relative (IL6R-BF648/IL6R-L = 100) in test [1]; 650 relative (IL6R-BF648/IL6R-L = 100) in test [2]; 24 relative (IL6R-BF648/IL6R-L = 100) in test [3]; 177 relative (IL6R-BF648/IL6R-L = 100) in test [4]; 582 relative (IL6R-BF648/IL6R-L = 100) in test [5].

B2: IL6R-BP177/IL6R-L (antibody, human IgG1, name in EU numbering)
heavy: QVQLQESGPGLVKPSETLSLTCAVSGHSISHDHAWSWVRQPPGEGLEWIGFISYSGITNYNPSLQGRVTISRDNSKNTLYLQMNSLRAEDTAVYYCARSLARTTAMDYWGEGTLVTVSSASTKGPSVFPLAPSSKSTSGGTAALGCLVKDYFPEPVTVSWNSGALTSGVHTFPAVLQSSGLYSLSSVVTVPSSSLGTQTYICNVNHKPSNTKVDKKVEPKSCDKTHTCPPCPAPDYLGDDSVFLFPPKPKDTLMISRTPEVTCVVVDVSHEDGEVKFNWYVDGVEVHNAKTKPREEQYNSTYRVVSVLTVLHQDWLNGKEYKCKVSNDALPKPIEKTISKAKGQPREPQVYTLPPSRDELTKNQVSLTCLVKGFYPSDIAVEWESNGQPENNYKTTPPVLDSDGSFFLYSKLTVDKSRWQQGNVFSCSVMHEALHNHYTQESLSLSP
light: DIQMTQSPSSLSASVGDRVTITCRASQDISSYLNWYQQKPGKAPKLLIYYTSRLHSGVPSRFSGSGSGTDFTFTISSLQPEDIATYYCQQGNTLPYTFGQGTKVEIK
notes: the list runs over r41 and r42; copies: 2 + 2
For B2, the relative binding activity was 186 relative (IL6R-BF648/IL6R-L = 100) in test [1]; 691 relative (IL6R-BF648/IL6R-L = 100) in test [2]; 57 relative (IL6R-BF648/IL6R-L = 100) in test [3]; 177 relative (IL6R-BF648/IL6R-L = 100) in test [4]; 409 relative (IL6R-BF648/IL6R-L = 100) in test [5].

B3: IL6R-BP180/IL6R-L (antibody, human IgG1, name in EU numbering)
heavy: QVQLQESGPGLVKPSETLSLTCAVSGHSISHDHAWSWVRQPPGEGLEWIGFISYSGITNYNPSLQGRVTISRDNSKNTLYLQMNSLRAEDTAVYYCARSLARTTAMDYWGEGTLVTVSSASTKGPSVFPLAPSSKSTSGGTAALGCLVKDYFPEPVTVSWNSGALTSGVHTFPAVLQSSGLYSLSSVVTVPSSSLGTQTYICNVNHKPSNTKVDKKVEPKSCDKTHTCPPCPAPELLGDDSVFLFPPKPKDTLMISRTPEVTCVVVDVSHEDGEVKFNWYVDGVEVHNAKTKPREEQYNSTYRVVSVLTVLHQDWLNGKEYKCKVSNKALPKPIEKTISKAKGQPREPQVYTLPPSRDELTKNQVSLTCLVKGFYPSDIAVEWESNGQPENNYKTTPPVLDSDGSFFLYSKLTVDKSRWQQGNVFSCSVMHEALHNHYTQESLSLSP
light: DIQMTQSPSSLSASVGDRVTITCRASQDISSYLNWYQQKPGKAPKLLIYYTSRLHSGVPSRFSGSGSGTDFTFTISSLQPEDIATYYCQQGNTLPYTFGQGTKVEIK
notes: copies: 2 + 2
As to B3, the relative binding activity in test [1] is 100 relative (IL6R-BF648/IL6R-L = 100); in test [2], 602 relative (IL6R-BF648/IL6R-L = 100); in test [3], 29 relative (IL6R-BF648/IL6R-L = 100); in test [4], 179 relative (IL6R-BF648/IL6R-L = 100); in test [5] it was 203 relative (IL6R-BF648/IL6R-L = 100).

B4: IL6R-BP149/IL6R-L (antibody, human IgG1, name in EU numbering)
heavy: QVQLQESGPGLVKPSETLSLTCAVSGHSISHDHAWSWVRQPPGEGLEWIGFISYSGITNYNPSLQGRVTISRDNSKNTLYLQMNSLRAEDTAVYYCARSLARTTAMDYWGEGTLVTVSSASTKGPSVFPLAPSSKSTSGGTAALGCLVKDYFPEPVTVSWNSGALTSGVHTFPAVLQSSGLYSLSSVVTVPSSSLGTQTYICNVNHKPSNTKVDKKVEPKSCDKTHTCPPCPAPDYLGDDSVFLFPPKPKDTLMISRTPEVTCVVVDVSHEDPEVKFNWYVDGVEVHNAKTKPREEQDNSTYRVVSVLTVLHQDWLNGKEYKCKVSNAALPKPIEKTISKAKGQPREPQVYTLPPSRDELTKNQVSLTCLVKGFYPSDIAVEWESNGQPENNYKTTPPVLDSDGSFFLYSKLTVDKSRWQQGNVFSCSVMHEALHNHYTQESLSLSP
light: DIQMTQSPSSLSASVGDRVTITCRASQDISSYLNWYQQKPGKAPKLLIYYTSRLHSGVPSRFSGSGSGTDFTFTISSLQPEDIATYYCQQGNTLPYTFGQGTKVEIK
notes: the list runs over r32 and r33; copies: 2 + 2
B4: the relative binding activity is 186 relative (IL6R-BF648/IL6R-L = 100) in test [1]; 539 relative (IL6R-BF648/IL6R-L = 100) in test [2]; 29 relative (IL6R-BF648/IL6R-L = 100) in test [3]; 173 relative (IL6R-BF648/IL6R-L = 100) in test [4]; 401 relative (IL6R-BF648/IL6R-L = 100) in test [5].

B5: IL6R-BP183/IL6R-L (antibody, human IgG1, name in EU numbering)
heavy: QVQLQESGPGLVKPSETLSLTCAVSGHSISHDHAWSWVRQPPGEGLEWIGFISYSGITNYNPSLQGRVTISRDNSKNTLYLQMNSLRAEDTAVYYCARSLARTTAMDYWGEGTLVTVSSASTKGPSVFPLAPSSKSTSGGTAALGCLVKDYFPEPVTVSWNSGALTSGVHTFPAVLQSSGLYSLSSVVTVPSSSLGTQTYICNVNHKPSNTKVDKKVEPKSCDKTHTCPPCPAPDYLGGDSVFLFPPKPKDTLMISRTPEVTCVVVDVSHEDGEVKFNWYVDGVEVHNAKTKPREEQYNSTYRVVSVLTVLHQDWLNGKEYKCKVSNAALPKPIEKTISKAKGQPREPQVYTLPPSRDELTKNQVSLTCLVKGFYPSDIAVEWESNGQPENNYKTTPPVLDSDGSFFLYSKLTVDKSRWQQGNVFSCSVMHEALHNHYTQESLSLSP
light: DIQMTQSPSSLSASVGDRVTITCRASQDISSYLNWYQQKPGKAPKLLIYYTSRLHSGVPSRFSGSGSGTDFTFTISSLQPEDIATYYCQQGNTLPYTFGQGTKVEIK
notes: the list runs over r52 and r53; copies: 2 + 2
Turning to B5, the relative binding activity in test [1] is 113 relative (IL6R-BF648/IL6R-L = 100); in test [2], 423 relative (IL6R-BF648/IL6R-L = 100); in test [3] it was 83 relative (IL6R-BF648/IL6R-L = 100); in test [4], 164 relative (IL6R-BF648/IL6R-L = 100); in test [5] it was 191 relative (IL6R-BF648/IL6R-L = 100).

B6: IL6R-BP150/IL6R-L (antibody, human IgG1, name in EU numbering)
heavy: QVQLQESGPGLVKPSETLSLTCAVSGHSISHDHAWSWVRQPPGEGLEWIGFISYSGITNYNPSLQGRVTISRDNSKNTLYLQMNSLRAEDTAVYYCARSLARTTAMDYWGEGTLVTVSSASTKGPSVFPLAPSSKSTSGGTAALGCLVKDYFPEPVTVSWNSGALTSGVHTFPAVLQSSGLYSLSSVVTVPSSSLGTQTYICNVNHKPSNTKVDKKVEPKSCDKTHTCPPCPAPEYLGDDSVFLFPPKPKDTLMISRTPEVTCVVVDVSHEDPEVKFNWYVDGVEVHNAKTKPREEQYNSTYRVVSVLTVLHQDWLNGKEYKCKVSNAALPRPIEKTISKAKGQPREPQVYTLPPSRDELTKNQVSLTCLVKGFYPSDIAVEWESNGQPENNYKTTPPVLDSDGSFFLYSKLTVDKSRWQQGNVFSCSVMHEALHNHYTQESLSLSP
light: DIQMTQSPSSLSASVGDRVTITCRASQDISSYLNWYQQKPGKAPKLLIYYTSRLHSGVPSRFSGSGSGTDFTFTISSLQPEDIATYYCQQGNTLPYTFGQGTKVEIK
notes: the list runs over r34 and r35; copies: 2 + 2
Take B6: the relative binding activity in test [1] was 204 relative (IL6R-BF648/IL6R-L = 100); in test [2], 757 relative (IL6R-BF648/IL6R-L = 100); in test [3] it was 30 relative (IL6R-BF648/IL6R-L = 100); in test [4], 183 relative (IL6R-BF648/IL6R-L = 100); in test [5], 770 relative (IL6R-BF648/IL6R-L = 100).

B7: IL6R-BP179/IL6R-L (antibody, human IgG1, name in EU numbering)
heavy: QVQLQESGPGLVKPSETLSLTCAVSGHSISHDHAWSWVRQPPGEGLEWIGFISYSGITNYNPSLQGRVTISRDNSKNTLYLQMNSLRAEDTAVYYCARSLARTTAMDYWGEGTLVTVSSASTKGPSVFPLAPSSKSTSGGTAALGCLVKDYFPEPVTVSWNSGALTSGVHTFPAVLQSSGLYSLSSVVTVPSSSLGTQTYICNVNHKPSNTKVDKKVEPKSCDKTHTCPPCPAPELLGDDSVFLFPPKPKDTLMISRTPEVTCVVVDVSHEDGEVKFNWYVDGVEVHNAKTKPREEQYNSTYRVVSVLTVLHQDWLNGKEYKCKVSNAALPKPIEKTISKAKGQPREPQVYTLPPSRDELTKNQVSLTCLVKGFYPSDIAVEWESNGQPENNYKTTPPVLDSDGSFFLYSKLTVDKSRWQQGNVFSCSVMHEALHNHYTQESLSLSP
light: DIQMTQSPSSLSASVGDRVTITCRASQDISSYLNWYQQKPGKAPKLLIYYTSRLHSGVPSRFSGSGSGTDFTFTISSLQPEDIATYYCQQGNTLPYTFGQGTKVEIK
notes: the list runs over r45 and r46; copies: 2 + 2
On to B7, for which the relative binding activity in test [1] is 125 relative (IL6R-BF648/IL6R-L = 100); in test [2], 570 relative (IL6R-BF648/IL6R-L = 100); in test [3] it was 39 relative (IL6R-BF648/IL6R-L = 100); in test [4], 177 relative (IL6R-BF648/IL6R-L = 100); in test [5] it was 226 relative (IL6R-BF648/IL6R-L = 100).
